Here are results for one molecule from article PMC6448596 (Cell reports, 2019).

The target in this experiment is His-SUMO-WDR5(22–334) (human, UniProt P61964 22-334). In words: AlphaScreen or HTRF. On the technique in general: In Alpha technology, singlet oxygen from a donor bead excites a nearby acceptor bead.

Turning to ARTEVHLRKS [10-mer-Thr-FAM (ARTEVHLRKS-(Ahx-Ahx)(Lys-(5-FAM)))], the binding result was “binds”.
